Each block holds one molecule with its values, some of them ahead of it.
Columns and labels:
mouse DLL4 = molecular target: T1, mouse DLL4 (Mus musculus, UniProt Q9JI71); test: Yeast-displayed nanobody clones stained with biotinylated mDLL4 and SA-647, flow cytometry; format: binding; settings: yeast display, biotinylated mDLL4 (N-EGF3), SA-647, FIG. 1
T1 construct: The mDLL4 protein was a truncation that contained the C2, DSL, and EGF1-3 domains (DLL4 (N-EGF3)); biotin (protein is biotinylated)
T1 sequence (Q9JI71 27-323 limits assumed): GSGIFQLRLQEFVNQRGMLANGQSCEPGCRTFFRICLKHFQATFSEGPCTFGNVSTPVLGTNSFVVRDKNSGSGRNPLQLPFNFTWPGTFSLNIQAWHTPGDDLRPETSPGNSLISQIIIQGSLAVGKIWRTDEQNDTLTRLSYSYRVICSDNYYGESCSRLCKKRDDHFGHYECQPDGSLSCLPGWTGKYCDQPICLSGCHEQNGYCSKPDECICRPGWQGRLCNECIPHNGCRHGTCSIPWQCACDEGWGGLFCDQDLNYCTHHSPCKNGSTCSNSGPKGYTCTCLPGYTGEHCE
Protocol: 162. To isolate binding molecules that interrupted the interaction of DLL4 and Notch1, we performed several rounds of selection using decreasing concentrations of biotinylated murine DLL4 protein. The mDLL4 protein was a truncation that contained the C2, DSL, and EGF1-3 domains (DLL4 (N-EGF3)). To perform a selection, the library was stained with biotinylated mDLL4, washed, incubated with streptavidin-647, washed, and then binders isolated selected using either (a) magnetic beads coated with an anti-647 antibody or (b) FACS. The mDLL4-binding yeast were then plated so that individual colonies could be picked and cultured to isolate individual clones. The clones were then each stained with mDLL4 and SA-647 and analyzed by flow cytometry to confirm that they bound to mDLL4. (FIG. 1).

DLL4 [1] = molecular target: T2, DLL4 (Homo sapiens, UniProt Q9NR61); test: Cross-reactivity: yeast expressing each nanobody stained with biotinylated human DLL4 (N-EGF3), flow cytometry; format: binding; set-up: stained with biotinylated human DLL4 (N-EGF3); biotin (protein is biotinylated); settings: yeast display, SA-647, FIG. 2
Protocol: 163. The eight anti-DLL4 nanobody clones were then tested for cross-reactivity between human and mouse DLL4. Yeast cells expressing each nanobody were stained with biotinylated human DLL4 (N-EGF3), washed, stained with SA-647, and then analyzed by flow cytometry.
Target sequence in this assay (Q9NR61 27-322 limits assumed): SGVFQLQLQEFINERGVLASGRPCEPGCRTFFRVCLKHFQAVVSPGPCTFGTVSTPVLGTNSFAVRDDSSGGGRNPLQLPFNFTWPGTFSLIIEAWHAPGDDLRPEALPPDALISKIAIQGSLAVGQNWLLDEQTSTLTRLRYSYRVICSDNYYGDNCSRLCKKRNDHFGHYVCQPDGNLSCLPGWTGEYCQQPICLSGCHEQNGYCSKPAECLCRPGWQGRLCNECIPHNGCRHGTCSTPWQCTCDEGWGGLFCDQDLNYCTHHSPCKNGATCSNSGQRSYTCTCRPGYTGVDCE

[2] = system: DLL4-mediated Notch activation (hNotch1); test: Plate-bound ligand stimulation assay, Notch1 H2B-citrine reporter cells on recombinant human DLL4; format: cell-based; settings: nanobody-Fc fusions, plates coated with human DLL4 (C2, DSL, EGF1-5), FIG. 6
Text: 167. To determine if the C4 and C5 nanobodies inhibit DLL4-mediated Notch activation. Notch1 reporter H2B-citrine reporter cells were transferred to 96-well plates coated with recombinant human DLL4 protein containing the C2, DSL, and EGF1-5 domains in the presence or absence of nanobody-Fc fusions.

hDLL4: hNotch1 complexes = hDLL4: hNotch1 complexes (Homo sapiens, UniProt Q9NR61); test: Yeast expressing nanobody stained with unlabeled hDLL4 + biotinylated hNotch1 (6-13), flow cytometry (inhibition of hNotch1 binding to hDLL4); settings: FIG. 3
Chain of hDLL4: hNotch1 complexes (Q9NR61 27-322 limits assumed, one chain of several): as the sequence (Q9NR61 27-322 limits assumed) above
Protocol: (§1) 164. Next, we tested four cross-reactive nanobodies (A7, C4, C5, and B1) for their ability to inhibit binding of hNotch1 to hDLL4 (FIG. 3). Yeast expressing each nanobody were stained with either biotinylated hDLL4 (N-3) or unlabled hDLL4+biotinylated hNotch1 EGF domains 6-13 (hNotch1 (6-13)). The yeast were then washed, incubated with SA-647, and analyzed by flow cytometry.

DLL4 [3] = molecular target: T2, DLL4; test: Yeast expressing nanobody stained with biotinylated hDLL4 (N-3) alone, flow cytometry; format: binding; set-up: stained with biotinylated human DLL4 (N-EGF3); settings: yeast display, FIG. 3
Protocol: as §1
Target sequence in this assay (Q9NR61 27-322 limits assumed): as above

hNotch1 = test: Inhibition in plate-bound and co-culture formats with CHO-hNotch1 reporter cell line; format: cell-based, human; settings: preliminary
Text: (§2) 168. We the investigated the C4 nanobody following affinity maturation and found a second nanobody Nb.d4C4v2. To identify the similarity between the parent C4 and the variant C4v2 clone the sequences of each nanobody was compared (FIG. 7). We also investigated the affinity of the C4 nanobody. […] Moreover, inhibition in plate-bound and co-culture formats in the presence of CHO-hNotch1 reporter cell line and with or without cells expressing DLL4 indicate a low-nanomolar IC50 similar to DAPT, indicating affinity-matured Nb.d4C4v2 is a clinical candidate (FIGS. 9 and 10).

DLL4 [4] = molecular target: T2, DLL4; test: SPR monomer affinity; format: binding; settings: preliminary, FIG. 8
Text: as §2
Target sequence in this assay (Q9NR61 27-685, species assumed): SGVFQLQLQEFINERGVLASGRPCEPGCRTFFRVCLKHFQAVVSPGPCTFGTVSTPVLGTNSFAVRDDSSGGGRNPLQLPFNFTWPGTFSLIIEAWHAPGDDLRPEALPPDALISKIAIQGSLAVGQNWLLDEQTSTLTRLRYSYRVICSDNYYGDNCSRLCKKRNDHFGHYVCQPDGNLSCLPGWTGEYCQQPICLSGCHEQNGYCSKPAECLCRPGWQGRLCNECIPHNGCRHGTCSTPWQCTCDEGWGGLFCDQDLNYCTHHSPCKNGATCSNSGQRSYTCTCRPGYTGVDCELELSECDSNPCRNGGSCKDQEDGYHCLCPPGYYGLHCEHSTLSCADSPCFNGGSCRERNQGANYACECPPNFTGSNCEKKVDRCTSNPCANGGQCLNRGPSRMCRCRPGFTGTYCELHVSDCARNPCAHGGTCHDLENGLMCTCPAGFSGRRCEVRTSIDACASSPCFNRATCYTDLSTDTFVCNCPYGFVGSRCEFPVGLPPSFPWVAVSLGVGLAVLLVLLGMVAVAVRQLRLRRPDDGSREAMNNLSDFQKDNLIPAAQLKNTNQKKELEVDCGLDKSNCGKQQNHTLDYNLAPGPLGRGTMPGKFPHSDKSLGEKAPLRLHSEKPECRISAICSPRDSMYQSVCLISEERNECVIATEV

binding to mouse DLL4 (mouse DLL4): bound mouse DLL4
B1: clone A8: anti-DLL4 nanobody isolated from the yeast library, SEQ ID NO: 4 (protein)
VHH: QVQLQESGGGLVQAGGSLRLSCAASGTIFEERVMGWYRQAPGKEREFVAGIASGAITYYADSVKGRFTISRDNAKNTVYLQMNSLKPEDTAVYYCAAQGYSFKTKPDYSAYVLVYWGQGTQVTVSSGSYPYDVPDYAQTSSPSTEAS

cross-reactivity with human DLL4 (DLL4 [1]): cross reacted with human DLL4
binding to hDLL4: hNotch1 complexes (hDLL4: hNotch1 complexes): not to hDLL4: hNotch1 complexes
binding to hDLL4 alone (DLL4 [3]): bound robustly
binding to mouse DLL4 (mouse DLL4): bound mouse DLL4
B2: clone C5: anti-DLL4 nanobody isolated from the yeast library, SEQ ID NO: 20 (protein)
VHH: QVQLQESGGGLVQAGGSLRLSCAASGNISTGTAMGWYRQAPGKEREFVAGIAYGATTYYADSVKGRFTISRDNAKNTVYLQMNSLKPEDTAVYYCAVEVSQSTPGGRYSVAYLIYWGQGTQVTVSSGSYPYDVPDYAQTSSPSTEAS
reduction in reporter activity (hNotch1 activation) [2]: dose-dependent reduction in reporter activity

binding to mouse DLL4 (mouse DLL4): bound mouse DLL4
B3: clone C2: anti-DLL4 nanobody isolated from the yeast library, SEQ ID NO: 28 (protein)
VHH: QVQLQESGGGLVQAGGSLRLSCAASGSISVVYGMGWYRQAPGKEREFVAGISYGGSTYYADSVKGRFTISRDNAKNTVYLQMNSLKPEDTAVYYCAVDASYWDTLVYWGQGTQVTVSSGSYPYDVPDYAQTSSPSTEAS

binding to mouse DLL4 (mouse DLL4): bound mouse DLL4
B4: clone A9: anti-DLL4 nanobody isolated from the yeast library, SEQ ID NO: 8 (protein)
VHH: QVQLQESGGGLVQAGGSLRLSCAASGTISQDSGMGWYRQAPGKEREFVAGITAGSITYYADSVKGRFTISRDNAKNTVYLQMNSLKPEDTAVYYCAASYVSVQAHTYWGQGTQVTVSSGSYPYDVPDYAQTSSPSTEAS

IC50 (hNotch1; CHO-hNotch1 reporter cell line and cells expressing DLL4, similar to DAPT, FIG. 10): low-nanomolar
IC50 (hNotch1; CHO-hNotch1 reporter cell line, without cells expressing DLL4, similar to DAPT, FIG. 9): low-nanomolar
B5: Nb.d4C4v2: affinity-matured variant of the C4 nanobody, SEQ ID NO: 39 (SEQ ID NO: 41 with flanking sequence) (protein)
VHH: QVQLQESGGGLVQAGGSLRLSCAASGSISGDVEMGWYRQAPGKEREFVAGINDGGNIYYADNVEGRFTISRDNAKNTVYLQMNSLKPEDTAVYYCAVSTTYPSYNESQYADWIAYWGQGAQVTVSS

cross-reactivity with human DLL4 (DLL4 [1]): cross reacted with human DLL4
binding to mouse DLL4 (mouse DLL4): bound mouse DLL4
B6: clone A7: anti-DLL4 nanobody isolated from the yeast library, SEQ ID NO: 24 (protein)
VHH: QVQLQESGGGLVQAGGSLRLSCAASGNIFYTYSMGWYRQAPGKEREFVAAISAGTITYYADSVKGRFTISRDNAKNTVYLQMNSLKPEDTAVYYCAVFAPRDVIHYYWGQGTQVTVSSGSYPYDVPDYAQTSSPSTEAS

cross-reactivity with human DLL4 (DLL4 [1]): cross reacted with human DLL4
binding to mouse DLL4 (mouse DLL4): bound mouse DLL4
B7: clone B1: anti-DLL4 nanobody isolated from the yeast library, SEQ ID NO: 12 (protein)
VHH: QVQLQESGGGLVQAGGSLRLSCAASGTIFYSSDMGWYRQAPGKEREFVAGINRGSTTYYADSVKGRFTISRDNAKNTVYLQMNSLKPEDTAVYYCAVVSDVLTRLFYWGQGTQVTVSSGSYPYDVPDYAQTSSPSTEAS

binding to mouse DLL4 (mouse DLL4): bound mouse DLL4
B8: clone B4: anti-DLL4 nanobody isolated from the yeast library, SEQ ID NO: 16 (protein)
VHH: QVQLQESGGGLVQAGGSLRLSCAASGNISVWIPMGWYRQAPGKEREFVASIGEGSTTYYADSVKGRFTISRDNAKNTVYLQMNSLKPEDTAVYYCAVPYYGHSDYDYWGQGTQVTVSSGSYPYDVPDYAQTSSPSTEAS

cross-reactivity with human DLL4 (DLL4 [1]): cross reacted with human DLL4
binding to hDLL4: hNotch1 complexes (hDLL4: hNotch1 complexes): not to hDLL4: hNotch1 complexes
monomer affinity (DLL4 [4]): low nanomolar to picomolar range
binding to hDLL4 alone (DLL4 [3]): bound robustly
B9: clone C4: anti-DLL4 nanobody isolated from the yeast library, SEQ ID NO: 32; nanobody d4C4 SEQ ID NO: 36 (protein)
VHH: QVQLQESGGGLVQAGGSLRLSCAASGSISGDVEMGWYRQAPGKEREFVAGINDGGNTYYADSVKGRFTISRDNAKNTVYLQMNSLKPEDTAVYYCAVSTTYPSYNESQYADWLAYWGQGTQVTVSSGSYPYDVPDYAQTSSPSTEAS
reduction in reporter activity (hNotch1 activation) [2]: dose-dependent reduction in reporter activity

Reference: patent publication US20250163146A1, “SINGLE-DOMAIN ANTIBODIES (NANOBODIES) TARGETING THE NOTCH LIGAND DLL4 AND METHODS OF THEIR USE” (H. LEE MOFFITT CANCER CENTER AND RESEARCH INSTITUTE, INC., priority 2022, published 2025)
